Measurements as given in patent publication US20210147549A1.

Tests used:
[1] = target: human recombinant CD64 (Fc gamma receptor I) (human) (UniProt P12314); experiment: SPR (Biacore T200), construct captured on Protein A, soluble CD64 as analyte
[2] = target: FcγRIIIa V158 on cells (TR-FRET assay) (UniProt P08637); experiment: TR-FRET competition (CisBio) on cells bearing labeled receptor, vs labeled competitor antibody
[3] = target: FcγRIIa H131 (CD32a) on cells (human) (UniProt P12318); experiment: as above
[4] = target: FcγRIIb on cells (TR-FRET assay) (UniProt P31994); experiment: as above
[5] = target: FcγRIIIa on effector cells (Jurkat/FcγRIIIa cells, NK cells) (UniProt P08637); experiment: cell-based or functional assay
Chain of FcγRIIIa on effector cells (Jurkat/FcγRIIIa cells, NK cells) (P08637 17-254): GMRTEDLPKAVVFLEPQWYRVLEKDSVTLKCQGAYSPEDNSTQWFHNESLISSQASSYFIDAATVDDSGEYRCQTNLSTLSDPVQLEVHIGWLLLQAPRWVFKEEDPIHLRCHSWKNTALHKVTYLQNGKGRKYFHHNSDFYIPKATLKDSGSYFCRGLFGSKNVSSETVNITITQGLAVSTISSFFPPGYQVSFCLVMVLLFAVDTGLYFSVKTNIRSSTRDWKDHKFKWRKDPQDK

Chain of human recombinant CD64 (Fc gamma receptor I) (human) (P12314 16-288 limits assumed): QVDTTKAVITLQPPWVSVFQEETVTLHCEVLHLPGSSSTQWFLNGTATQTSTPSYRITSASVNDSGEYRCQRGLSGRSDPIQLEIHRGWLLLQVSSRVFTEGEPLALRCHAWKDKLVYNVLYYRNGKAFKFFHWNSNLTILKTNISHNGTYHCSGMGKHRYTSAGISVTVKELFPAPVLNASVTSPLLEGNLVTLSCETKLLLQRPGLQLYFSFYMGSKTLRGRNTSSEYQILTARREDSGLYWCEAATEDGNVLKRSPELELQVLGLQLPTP
Chain of FcγRIIa H131 (CD32a) on cells (human) (P12318 34-317): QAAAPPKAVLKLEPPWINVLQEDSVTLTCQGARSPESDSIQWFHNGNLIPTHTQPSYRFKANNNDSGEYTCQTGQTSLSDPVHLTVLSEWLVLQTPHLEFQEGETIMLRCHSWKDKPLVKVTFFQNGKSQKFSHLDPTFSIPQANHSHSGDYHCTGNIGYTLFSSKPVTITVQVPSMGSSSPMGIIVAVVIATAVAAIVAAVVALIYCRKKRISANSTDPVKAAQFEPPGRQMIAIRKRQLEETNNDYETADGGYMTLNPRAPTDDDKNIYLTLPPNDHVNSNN
Chain of FcγRIIIa V158 on cells (TR-FRET assay) (P08637 17-254 F176V limits assumed): as the sequence (P08637 17-254) above, with F160V counted along it
Chain of FcγRIIb on cells (TR-FRET assay) (P31994 43-310 limits assumed): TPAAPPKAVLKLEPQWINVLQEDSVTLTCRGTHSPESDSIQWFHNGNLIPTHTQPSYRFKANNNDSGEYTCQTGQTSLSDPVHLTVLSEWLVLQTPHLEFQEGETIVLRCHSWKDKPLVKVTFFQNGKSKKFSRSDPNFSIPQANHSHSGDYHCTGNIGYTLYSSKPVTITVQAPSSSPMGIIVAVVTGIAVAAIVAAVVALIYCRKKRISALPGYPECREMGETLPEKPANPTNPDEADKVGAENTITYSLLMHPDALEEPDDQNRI

CD64 Valency by SPR [1] | IC50 [2] | IC50 [3] | IC50 [4] | EC50 (nM), Mean; ADCC in KILR-A549 cells with NK cells [5] | EC50 (nM), Mean; FcyRIIIa signaling in an ADCC reporter assay [5] | Substance
1.5 | 428 nM | 1270 nM | 3.29 µM | – | – | anti-CD20 monoclonal antibody with the CDRs of Gazyva (obinutuzumab)
– | – | – | – | 0.0054 nM | – | avelumab anti-PD-L1 monoclonal antibody, afucosylated
1.3 | – | – | – | – | 0.049 nM | avelumab anti-PD-L1 monoclonal antibody, fucosylated (S1A-AA-Ave-001, generated in-house)
